Target: T1, rat Tie-2 (rTie-2), as used in BIAcore analysis (rat, UniProt A0ABK0L6J5 19-740)
T1 construct: It may have been rTie-2-Fc
Test: BIAcore

B1: FD1-Fc-FD1 (Fc fusion, human)
chain (part 1 of 2): FRDCADVYQAGFNKSGIYTIYINNMPEPKKVFCNMDVNGGGWTVIQHREDGSLDFQRGWKEYKMGFGNPSGEYWLGNEFIFAITSQRQYMLRIELMDWEGNRAYSQYDRFHIGNEKQNYRLYLKGHTGTAGKQSSLILHGADFSTKDADNDNCMCKCALMLTGGWWFDACGPSNLNGMFYTAGQNHGKLNGIKWHYFKGPSYSLRSTTMMIRPLDF
chain (part 2 of 2): B1 chain (part 1 of 2)
notes: domain: fibrinogen domain of Ang1; also called BA1; not shown: Fc
Kd: 2 nM
